Laboratory results: patent US20230365685A1 (SUZHOU NEOLOGICS BIOSCIENCE, published 2023)
Positions count from the first letter of the chain named.

T1: cynomolgus TIM-3 (cynomolgus, UniProt A0A2K5U3G7 22-294)
T1 construct: whole, on cells
T1 sequence: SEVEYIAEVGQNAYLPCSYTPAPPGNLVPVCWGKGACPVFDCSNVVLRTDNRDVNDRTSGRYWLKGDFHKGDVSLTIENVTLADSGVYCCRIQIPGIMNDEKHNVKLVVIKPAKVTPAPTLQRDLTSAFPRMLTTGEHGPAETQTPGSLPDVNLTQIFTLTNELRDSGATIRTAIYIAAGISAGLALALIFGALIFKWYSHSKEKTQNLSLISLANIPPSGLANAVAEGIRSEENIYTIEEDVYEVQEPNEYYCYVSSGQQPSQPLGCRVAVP

B1: 4H2 (antibody, V domains shown)
VH: EVQLQESGPSLVKPSQTLSLTCSVTGDSITSGYWNWIRKFPGNKLEYMGYINYSGSTYYNPSLKSRISITRDTSKNQYYLQLNSVTTEDTATYYCATGNHFDYWGQGTTLTVSS
VL: DIQMTQSPSSLSASLGGKVTITCKASQDINKYIAWYQHKPGKGPRLLIHYTSTLQPGIPSRFSGSGSGTDYSFSISNLEPEDFATYYCLQYDNLLFTFGSGTKLEIK
B2: 16H1 (antibody, V domains shown)
VH: QVQLQQSGPQLVRPGSSVQISCKTSGYSFTSYLMHWVRQRPGQGLEWIGSIDPSDSEISLNQKFMDKATLTVDKSSSTANMQFSSPTSEDSAVYFCARDFGYVAWFVYWGQGTLVTVSA
VL: DIVMTQSHKFMSTSIEDRVSITCKASQDVSAAVAWYQQKPGQTPKLLIYSTFYRYIGVPDRFTGSGSGTDFTFTITSVQAEDLAVYFCQQHYSVPWTFGGGTKLEIK
notes: also called I6H1
B3: CH 10# (antibody, V domains shown)
VH: QVQLQQSGAELMKPGASVKISCKAIGYTFSSYWIEWVKQRPGHGLEWIGEISPGRGSTNYNEKFKGKATFTADTSSNTAYMQLSSLTSEDSAVYYCARDYYGSIFDVWGQGTTVTVSS
VL: DIELTQSPALMAASPGEKVTITCSASSSVSSSYLHWYQQKPGSSPKLWIYSTSNLASGVPARFSGSGSGTSYSLTISSMEAEDAATYYCQQWSSYPLTFGAGTKLEIK
B4: 3E6 (antibody, V domains shown)
VH: DVQLQEAGPGLVKPSQSLSLNCTVTGYSITSGFAWNWIRQFPGNKLEWMGYISHSGSTSYNPSLKSRISITRDTSKNQFFLQLNSVTTEDTATYYCARGYRSPWFAYWGQGTLVTVSA
VL: DIIMTQSQKFMSTSVGDRVSVTCKASQNVGANVAWYQQKPRQSPKALIYSASYRYSGVPDRFTGSGSGTDFTLTISNVQSEDLAEYFCQQYNSYPTFGGGTKLEIK
B5: 19D11 (antibody, V domains shown)
VH: B4 VH with A7S, G10D, N21T, F33Y, A34S, N36H, S53Y, H54F, S59N, P103A
VL: DIVMTQSQKFMSTSVGDRVSVTCKASQNVGTNVAWYQQKPGQSPKTLIYSASYRYSGVPDRFTGSGSGTDFTLTISNVQSEDLAEYFCQQYNSYPLVTFGTGTKLELK
B6: 39D1 (antibody, V domains shown)
VH: QVQLQQSGAELMKPGASVKISCKATGYTFSSSYWIEWVKQRPGHGLEWIGEILPGSGSINYNEKFKGKATFTADTSSNTVYMQLSSLTSDDSAVYYCARSYYYVMDYWGQGTSVTVSS
VL: QIVLTQSPAIMSASPGEMLTITCSASSSVRFMHWFQQKPGTSPKLWIYSTSNLASGVPARFSGSGSGTSYSLTVSRMEAEDAATYYCQQRSSYPPTFGGGTKLEIK
B7: 3F2 (antibody, V domains shown)
VH: EVQLQQSGPELVKTGSSVKISCKASGYSFTGYYMHWVRQSPGKSLEWIGYISCYNGATNYNQKFKGKATFTVDTYSSTAYMQFDSLASEDSAVYYCVRDYYLSVMDYWGQGTSVTVSS
VL: NIMMTQSPSSLAVSAGEKVTMSCKSSQSVLYSSNQKNYLAWYQQKPGQSPKLLIYWASFRESGVPDRFTGSGSGTDFTLTISSVQAEDLAVYYCHQSLSSYTFGGGTKLEIK

target: T2, biotinylated human TIM-3 (human, UniProt Q8TDQ0 22-202, limits assumed, biotinylated (sites not given)); test: competition ELISA: antibody coated, biotinylated human TIM-3 preincubated with competitor 19D11
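Wherever inhibit percentage is given: plate-coated antibody at 2 µg/mL.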

inhibit percentage [%] | Binder
39 | B1
0.06 | B2
98.1 | B3
38.7 | B4
100 | B5

target: T2, biotinylated human TIM-3; test: competition ELISA: antibody coated, biotinylated human TIM-3 preincubated with competitor TSR022
Method: (§1) Antibodies were diluted with PBS to 2 μg/mL. 50 μl antibody solution was added to each well of the 96-well plate, which was incubated at 4° C. overnight. The plate was then washed with wash buffer (0.05% Tween in PBS) three times and blocked with 5% skim milk in PBS at 37° C. for two hours. The biotinylated human TIM-3 and antibodies were preincubated at room temperature for half an hour and then added to the plate. The plate was then incubated at room temperature for 1 hour and washed three times with wash buffer. 50 μl streptavidin HRP (1:1000, BD) was then added to each well at room temperature and incubated for about 1 hour. 50 μl of TMB substrate was added to each well, and the reaction was then terminated with 50 μl HCL after 1-5 minutes. Absorbance was read at 450 nm and IC50 value was analyzed.

inhibit percentage [%] | Binder
16.7 | B1
4.02 | B2
48.5 | B3
16.4 | B4
10.3 | B5

target: T3, mouse TIM-3 (mouse, UniProt Q8VIM0 20-281); test: flow cytometry on cells stably expressing mouse TIM-3, PE-labelled secondary antibody; concentration not shown
T3 construct: whole, on cells

binding result | Binder
no binding | B1
no binding | B2
no binding | B3
no binding | B4
no binding | B5

target: T2, biotinylated human TIM-3; test: competition ELISA: antibody coated, biotinylated human TIM-3 preincubated with competitor CH 10#
Method: as §1

inhibit percentage [%] | Binder
56.8 | B1
15.1 | B2
100 | B3
50.1 | B4
100 | B5

target: T2, biotinylated human TIM-3; test: competition ELISA: antibody coated, biotinylated human TIM-3 preincubated with competitor 4H2
Method: as §1

inhibit percentage [%] | Binder
100 | B1
64.7 | B2
98.6 | B3
99.6 | B4
100 | B5

target: T1, cynomolgus TIM-3; test: flow cytometry on 293T cells stably expressing cynomolgus TIM-3, serially diluted antibody, PE-labelled secondary antibody [upper panel]
Method: (§2) Briefly, serially diluted anti-TIM-3 antibodies were incubated with cell lines stably expressing mouse TIM-3 or cynomolgus TIM-3 (10⁵ cells/well). Then, PE-labelled mouse anti-human IgG antibody (Biolegend) was used as detection antibody. A flow cytometer (Canto II, BD, USA) was used to measure fluorescence.

EC50 (read off the curve) [µg/mL] | Binder
~0.07 | B1
~0.04 | B2
~0.1 | B4

target: T2, biotinylated human TIM-3; test: competition ELISA: antibody coated, biotinylated human TIM-3 preincubated with competitor 16H1
Method: as §1

inhibit percentage [%] | Binder
28.9 | B1
100 | B2
45.8 | B3
26.3 | B4
0 | B5

target: T2, biotinylated human TIM-3; test: competition ELISA: antibody coated, biotinylated human TIM-3 preincubated with competitor 3E6
Method: as §1

inhibit percentage [%] | Binder
99.9 | B1
60 | B2
98.2 | B3
100 | B4
100 | B5

target: T4, human TIM-3 recombinant protein (TIM-3-his) (human, UniProt Q8TDQ0 22-202); test: biosensor (HFC sensor, Probe Life): antibody captured, TIM-3-his in solution, 1:1 fit;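 further: antigen applied as a twofold dilution series, association and dissociation phases recorded, KD obtained as koff divided by kon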
T4 construct: also called TIM-3 protein; not shown: His tag

Kd [nM] | koff [s⁻¹] | kon [M⁻¹ s⁻¹] | Binder
1.13 | 0.00141 | 1.25e+06 | B6
0.424 | 0.000558 | 1.32e+06 | B1
0.168 | 0.000218 | 1.3e+06 | B2
38.2 | 0.00148 | 38600 | B3
0.23 | 0.000284 | 1.24e+06 | B4
0.604 | 0.00037 | 613000 | B5
1.11 | 0.00066 | 596000 | B7

target: T2, biotinylated human TIM-3; test: competition ELISA: antibody coated, biotinylated human TIM-3 preincubated with competitor CH 11#
Method: as §1

inhibit percentage [%] | Binder
62.5 | B1
8.26 | B2
99.7 | B3
67.1 | B4
100 | B5

target: T1, cynomolgus TIM-3; test: flow cytometry on 293T cells stably expressing cynomolgus TIM-3, serially diluted antibody, PE-labelled secondary antibody [lower panel]
Method: as §2

EC50 (read off the curve) [µg/mL] | Binder
~0.02 | B6
~0.4 | B7

target: T2, biotinylated human TIM-3; test: competition ELISA: antibody coated, biotinylated human TIM-3 preincubated with competitor MBG453
Method: as §1

inhibit percentage [%] | Binder
28 | B1
81.7 | B2
35.4 | B3
24.9 | B4
0 | B5

target: T5, human TIM-3 (human, UniProt Q8TDQ0 22-202, limits assumed); test: blocking assay, flow cytometry: antibody preincubated with recombinant human TIM-3-Fc, then binding of TIM-3-Fc to apoptotic 293T cells; blocked ligand: phosphatidylserine
T5 construct: also called HAVCR2; target antigen
Method: After the cells were washed once, PE-labelled goat anti-mouse IgG antibody was added and incubated for 1 hour at 4° C. Finally, samples were washed once with 1× Annexin-V buffer and fluorescence was measured with a flow cytometer (Canto II, BD, USA).

IC50 (read off the curve) [µg/mL] | Binder
~4 | B1
~2 | B2
~4 | B3
~4 | B4
~7 | B5
